# Experimental data published in patent publication US7217548B2, “N-acetylglucosaminlytransferase and polynucleotide encoding the same” (National Institute of Advanced Industrial Science and …, priority 2000, dated 2007).
# B1: His-Xpress-sOMGnT(S) (Homo sapiens; M623V) (protein)
# chain: SSAEEAECHWADTELNRRRRRFCSKVEGYGSVCSCKDPTPIEFSPDPLPDNKVLNVPVAVIAGNRPNYLYRMLRSLLSAQGVSPQMITVFIDGYYEEPMDVVALFGLRGIQHTPISIKNARVSQHYKASLTATFNLFPEAKFAVVLEEDLDIAVDFFSFLSQSIHLLEEDDSLYCISAWNDQGYEHTAEDPALLYRVETMPGLGWVLRRSLYKEELEPKWPTPEKLWDWDMWMRMPEQRRGRECIIPDVSRSYHFGIVGLNMNGYFHEAYFKKHKFNTVPGVQLRNVDSLKKEAYEVEVHRLLSEAEVLDHSKNPCEDSFLPDTEGHTYVAFIRMEKDDDFTTWTQLAKCLHIWDLDVRGNHRGLWRLFRKKNHFLVVGVPASPYSVKKPPSVTPIFLEPPPKEEGAPGAPEQT
# notes: Ig kappa chain secretory signal (N); made in house; host or cells: HEK293T (transient, secreted into serum-free medium)
# Substrate: CC(=O)N[C@@H](C)C(=O)N[C@@H](C)C(=O)N1CCC[C@H]1C(=O)N[C@H](C(=O)N1CCC[C@H]1C(=O)N[C@H](C(=O)N[C@@H](C)C(=O)N[C@@H](C)C(=O)N1CCC[C@H]1C(N)=O)C(C)C)[C@@H](C)O[C@H]1O[C@H](CO)[C@@H](O)[C@H](O)[C@@H]1O
# Experiment: Substrate specificity and kinetic parameters of solubilized human OMGnT enzyme (S)
# Format: biochemical
# Details: other: 125 mM MOPS pH7.3, 0.2 mM UDP-GlcNAc, 7.5 mM MnCl2, 37° C., 2 hours, pH 7.3
# Experimental: […] […] The reaction mixture was then filtered with a filter Ultrafree-MC (Millipore) having a pore size of 0.22 μm to remove solids, and analyzed by Wakopak 5C18-200 column (4.6×250 mm, Wako Pure Chemical Industries, Ltd.). The separation was carried out using concentration gradient with Solution A and Solution B at a flow rate of 1.0 ml/min. […] Peptide detection was carried out at 214 nm, and the radioactivity of each fraction was assayed using a liquid scintillation counter.
# The activity of GnT-1 was assayed with a method by Yoshida et al. [Yoshida, S., Suzuki, M., Yamano, S., Takeuchi, M., Ikenaga, H., Kioka, N., Sakai, H., and Komano, T., Glycobiology, (1999), 9, 53–58] as described below. A 20 μl reaction solution was prepared by adding an enzyme source thereto so as to have a final concentration of 100 mM MES (pH 6.0), 20 mM MnCl2, 5 μM Manα1–6(Manα1–3)Manα1–6(Manα1–3)Manβ1–4GlcNAcβ1–4GlcNAc-PA(M5GN2-PA; Takara Shuzo, PA-Sugar Chain 017), 1 mM UDP-GlcNAc, 100 mM GlcNAc, 5 mM AMP, 1% Triton X-100, and 0.2% BSA. The reaction solution was incubated at 37° C. for 1 hour, and the reaction was terminated in boiling water. Thereafter, the reaction solution was analyzed by a reverse phase HPLC (Cosmosil 5C18-AR column) available from Nacalai Tesque. […]
protein,measurement,value
B1,Km,1360 µM
